For 23 sequences, IC50 results are on record in the Immune Epitope Database (IEDB).

Targets include HLA-A*02:03; HLA-A*02:01; HLA-A*68:02; HLA-A*02:02; HLA-A*02:06.
What all share (experiment): IEDB peptide-MHC binding, purified MHC/competitive/radioactivity; ≥ and ≤ were set here for values at or beyond the usual limits of such assays
Setting [1] is: source organism: Vaccinia virus WR.

SVKNLILNFL: the half-inhibitory concentration (IC50) came out at 163 nM with HLA-A*02:03 (setting [1]); 2210 nM with HLA-A*02:01 (setting [1]); 130 nM with HLA-A*68:02 (setting [1]); 1040 nM in the assay with HLA-A*02:02 (setting [1]); 551 nM in the assay with HLA-A*02:06 (setting [1]).

In the case of SVMNFIPII, the concentration for half-maximal inhibition (IC50) was 6.3 nM with HLA-A*02:03 (setting [1]); 1.7 nM in the assay with HLA-A*02:01 (setting [1]); 58 nM with HLA-A*68:02 (setting [1]); 13 nM in the assay with HLA-A*02:02 (setting [1]); 2.8 nM with HLA-A*02:06 (setting [1]).

Turning to TAYIGTSNWT, the half-maximal inhibitory concentration (IC50) was 1050 nM in the assay with HLA-A*02:03 (setting [1]); 4150 nM with HLA-A*02:01 (setting [1]); 555 nM with HLA-A*68:02 (setting [1]); 1760 nM with HLA-A*02:02 (setting [1]); 220 nM with HLA-A*02:06 (setting [1]).

Take TIAGGVCYYL: the IC50 was determined as 34 nM with HLA-A*02:03 (setting [1]); 0.24 nM in the assay with HLA-A*02:01 (setting [1]); 0.13 nM with HLA-A*68:02 (setting [1]); 0.036 nM with HLA-A*02:02 (setting [1]); 4 nM with HLA-A*02:06 (setting [1]).

In the case of TIAHINTLI, the IC50 in the assay with HLA-A*02:03 (setting [1]) came to 20 nM; in the assay with HLA-A*02:01 (setting [1]) it was 255 nM; in the assay with HLA-A*68:02 (setting [1]) it was 129 nM; in the assay with HLA-A*02:02 (setting [1]), 21 nM; in the assay with HLA-A*02:06 (setting [1]) it was 571 nM.

For TIAVSVYGA, the IC50 with HLA-A*02:03 (setting [1]) was determined as 9.9 nM; with HLA-A*02:01 (setting [1]) it was 104 nM; with HLA-A*68:02 (setting [1]) it was 32 nM; with HLA-A*02:02 (setting [1]), 25 nM; with HLA-A*02:06 (setting [1]), 99 nM.

For the sequence TICLKNEGV, the IC50 with HLA-A*02:03 (setting [1]) was 120 nM; with HLA-A*02:01 (setting [1]), 547 nM; with HLA-A*68:02 (setting [1]), 5.8 nM; with HLA-A*02:02 (setting [1]), 494 nM; with HLA-A*02:06 (setting [1]), 311 nM.

As to TIDAINKCV, the 50% inhibitory concentration (IC50) with HLA-A*02:03 (setting [1]) was 634 nM; with HLA-A*02:01 (setting [1]), 783 nM; in the assay with HLA-A*68:02 (setting [1]), 222 nM; with HLA-A*02:02 (setting [1]), 90 nM; in the assay with HLA-A*02:06 (setting [1]), 406 nM.

As for TIDKSSPLYI, the half-maximal inhibitory concentration (IC50) with HLA-A*02:03 (setting [1]) is 12 nM; with HLA-A*02:01 (setting [1]), 1900 nM; with HLA-A*68:02 (setting [1]) it was 1550 nM; in the assay with HLA-A*02:02 (setting [1]), 387 nM; in the assay with HLA-A*02:06 (setting [1]), 1820 nM.

On to TIDNIVTSL, for which the IC50 in the assay with HLA-A*02:03 (setting [1]) worked out at 1040 nM; in the assay with HLA-A*02:01 (setting [1]) it was 2670 nM; in the assay with HLA-A*68:02 (setting [1]), 1860 nM; with HLA-A*02:02 (setting [1]), 178 nM; in the assay with HLA-A*02:06 (setting [1]) it was 2730 nM.

In the case of TIFDIVSKCI, the IC50 with HLA-A*02:03 (setting [1]) was 94 nM; in the assay with HLA-A*02:01 (setting [1]), 596 nM; in the assay with HLA-A*68:02 (setting [1]) it was 109 nM; with HLA-A*02:02 (setting [1]), 198 nM; with HLA-A*02:06 (setting [1]), 701 nM.

Take TIGTIAGGV: the IC50 is 17 nM with HLA-A*02:03 (setting [1]); 772 nM in the assay with HLA-A*02:01 (setting [1]); 70 nM with HLA-A*68:02 (setting [1]); 298 nM in the assay with HLA-A*02:02 (setting [1]); 1140 nM with HLA-A*02:06 (setting [1]).

Consider TIKESLLKET, for which the IC50 with HLA-A*02:03 (setting [1]) amounted to 149 nM; in the assay with HLA-A*02:01 (setting [1]), 85 nM; with HLA-A*68:02 (setting [1]) it was 296 nM; in the assay with HLA-A*02:02 (setting [1]) it was 1580 nM; with HLA-A*02:06 (setting [1]), 87 nM.

Take TILATLNTLI: the half-maximal inhibitory concentration (IC50) with HLA-A*02:03 (setting [1]) was determined as 30 nM; with HLA-A*02:01 (setting [1]), 184 nM; with HLA-A*68:02 (setting [1]) it was 1470 nM; in the assay with HLA-A*02:02 (setting [1]), 40 nM; with HLA-A*02:06 (setting [1]) it was 335 nM.

As to TILDDNLYKV, the IC50 in the assay with HLA-A*02:03 (setting [1]) came out at 1630 nM; in the assay with HLA-A*02:01 (setting [1]), 239 nM; in the assay with HLA-A*68:02 (setting [1]) it was 1420 nM; with HLA-A*02:02 (setting [1]), 1080 nM; with HLA-A*02:06 (setting [1]), 49 nM.

Consider TINVNSLAL, for which the IC50 was 1540 nM with HLA-A*02:03 (setting [1]); 1530 nM in the assay with HLA-A*02:01 (setting [1]); 1530 nM with HLA-A*68:02 (setting [1]); 1980 nM with HLA-A*02:02 (setting [1]); 2180 nM in the assay with HLA-A*02:06 (setting [1]).

Take TISGNIYSA: the IC50 in the assay with HLA-A*02:03 (setting [1]) is 19 nM; in the assay with HLA-A*02:01 (setting [1]) it was 207 nM; with HLA-A*68:02 (setting [1]), 11 nM; with HLA-A*02:02 (setting [1]), 85 nM; with HLA-A*02:06 (setting [1]), 179 nM.

Take TISGNIYSAL: the IC50 with HLA-A*02:03 (setting [1]) turned out to be 89 nM; in the assay with HLA-A*02:01 (setting [1]), 1110 nM; with HLA-A*68:02 (setting [1]), 19 nM; with HLA-A*02:02 (setting [1]), 9.3 nM; with HLA-A*02:06 (setting [1]), 2670 nM.

As to TLDAANHSI, the IC50 in the assay with HLA-A*02:03 (source organism: SARS-CoV1) worked out at 283 nM; in the assay with HLA-A*02:01 (source organism: SARS-CoV1) it was 9.6 nM; in the assay with HLA-A*68:02 (source organism: SARS-CoV1), 1020 nM; with HLA-A*02:02 (source organism: SARS-CoV1) it was 92 nM; in the assay with HLA-A*02:06 (source organism: SARS-CoV1) it was 29 nM.

In the case of TLGVYDYLV, the IC50 with HLA-A*02:03 (source organism: SARS-CoV1) worked out at 936 nM; in the assay with HLA-A*02:01 (source organism: SARS-CoV1) it was 2.7 nM; in the assay with HLA-A*68:02 (source organism: SARS-CoV1) it was 157 nM; in the assay with HLA-A*02:02 (source organism: SARS-CoV1), 0.25 nM; with HLA-A*02:06 (source organism: SARS-CoV1), 75 nM.

With TLIDFYLCFL, the IC50 with HLA-A*02:03 (source organism: SARS-CoV1) came out at 3.6 nM; with HLA-A*02:01 (source organism: SARS-CoV1) it was 2.2 nM; with HLA-A*68:02 (source organism: SARS-CoV1), 151 nM; in the assay with HLA-A*02:02 (source organism: SARS-CoV1) it was 0.041 nM; with HLA-A*02:06 (source organism: SARS-CoV1), 3 nM.

As to TLIQYRQQL, the IC50 with HLA-A*02:03 (setting [1]) turned out to be 410 nM; with HLA-A*02:01 (setting [1]) it was 134 nM; with HLA-A*68:02 (setting [1]), 725 nM; with HLA-A*02:02 (setting [1]), 128 nM; with HLA-A*02:06 (setting [1]), 1880 nM.

In the case of TLISSDGARV, the IC50 with HLA-A*02:03 (setting [1]) was 133 nM; with HLA-A*02:01 (setting [1]) it was 621 nM; with HLA-A*68:02 (setting [1]), 542 nM; with HLA-A*02:02 (setting [1]) it was 142 nM; in the assay with HLA-A*02:06 (setting [1]), 1220 nM.

Usually IC50 stands for the concentration at which inhibition is half-maximal.
